Results as given in the supplement of paper PMC9170038.

System: MS2 coat protein
Assay: apparent KD of MS2 coat protein; designed switch direction (-1 OFF switch, 1 ON switch): -1; higher = weaker reporter binding
Outline: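 An oligonucleotide input, 200 uM small-molecule ligand, or no input was present during titration of SNAP-549-labelled MS2 coat protein, which was doubled from 0.7 or 1.5 nM to 3 µM. Designed RNA switches had been transcribed on Illumina chips by stalled E. coli RNA polymerase. Apparent KD per design is the median over clusters of curves fitted to normalised cluster fluorescence.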

[1] = input ligand: microRNA oligo, concentration not stated
[2] = Eterna round: R95, input ligand: FMN 200 uM
[3] = Eterna round: R95, input ligand: microRNA oligo, concentration not stated
[4] = Eterna round: R95, input ligand: none

Sequence: AAAAGAAAAGUAGGAUAUGUGAAAGGAAGUGUAACAGAAGGACUGUGGGUCUUCCGACAUGAGGAUCACCCAUGUAAAAGAAAA [PowerStrip EXNG 1.8] (Eterna round: R96, puzzle: Exclusion NG 1)
- apparent KD of MS2 coat protein (input ligand: FMN 200 uM): 114 nM
- apparent KD of MS2 coat protein [1]: 6.35 nM
- apparent KD of MS2 coat protein (input ligand: none): 53.9 nM

Sequence: ACUGUUCGAGGAUAUACGAUCGUGCUUCGGCACGUAAGAUCACAUGAGGAUCACCCAUGUAGAAGGCGAACAGU [Mod 5 - Jieux - Exclusion 2] (Eterna round: R97, puzzle: Exclusion 2)
- apparent KD of MS2 coat protein (input ligand: FMN 200 uM): 292 nM
- apparent KD of MS2 coat protein (input ligand: none): 38.6 nM

Sequence: GGAAGGUCAGGAUAUGCGAGGGAGUGGGAAGUAGCAUGGUAGCAGAAGGGACAUGAGGAUCACCCAUGUUAGGA [JR_Exclu4_Sub0102] (puzzle: Exclusion 4)
- apparent KD of MS2 coat protein [2]: 35.2 nM
- apparent KD of MS2 coat protein [3]: 28.7 nM
- apparent KD of MS2 coat protein [4]: 40.7 nM

Sequence: ACGCGCAUAGGAUAUGCCGACGGAGAACUCCAGUGACUUCAACAUGAGGAUCACCCAUGUAGAAGGAUGAUGCA [Eternabot (Original) Solution 32] (Eterna round: R97, puzzle: Exclusion 2)
- apparent KD of MS2 coat protein (input ligand: FMN 200 uM): 16.8 nM
- apparent KD of MS2 coat protein (input ligand: none): 14.8 nM

Sequence: CAGCGGUGAGGAUAUUCAAGGUGGGACAUGAGGAUCACCCAUGUACAUAGCUGUACGACCGGAGAAGGCGUGGCAU [Eternabot (L1) Solution 67] (Eterna round: R97, puzzle: Exclusion 5)
- apparent KD of MS2 coat protein (input ligand: FMN 200 uM): 86.5 nM
- apparent KD of MS2 coat protein (input ligand: none): 76.3 nM

Sequence: UAUGUUUUUGUGAGGAUAUACUUUGUUUGGUCGUAGUAGAAGGCACAUGAGGAUCACCCAUGUAGAUUUUUGGU [JR_BME4_Sub010] (puzzle: Brourd's mod of Exclusion 4)
- apparent KD of MS2 coat protein [3]: 22.9 nM

Sequence: CGUUGGCGAGGAUAUACAUGAGGAUCACCCAUGUGAGAGAAAAAAGUGAGGAAGAAAAGUAGAAGGCGCUGACU [salish99_ex3_r3_051] (puzzle: Exclusion 3)
- apparent KD of MS2 coat protein [2]: 101 nM
- apparent KD of MS2 coat protein [3]: 31.7 nM
- apparent KD of MS2 coat protein [4]: 54.3 nM

Sequence: AUUAUAUAGAAAGGAUAUAGAUUAUUAUUUUAACAUGAGGAUCACCCAUGUAGCCUUAUGUAUAACUAGAAGGUUCAUUUAUUA [Title] (Eterna round: R96, puzzle: Exclusion NG 2)
- apparent KD of MS2 coat protein [1]: 57.9 nM

Sequence: UAAUAAUAGCAAGGAUAUGAUUAUUAUAAUAUAUCAGAAGGUGCACAUGAGGAUCACCCAUGUUUUAUAAUUUGUAAUUUAAAU [2nd something] (Eterna round: R96, puzzle: Exclusion NG 1)
- apparent KD of MS2 coat protein [1]: 40.4 nM

Sequence: UUUUAGCAAGCUAUUAUUAACAUGAGGAUCACCCAUGUGCAUCCAAAAUUACUUUUAGAUCUUGCUCGUCUUAUAUA [JR_STOV1_v2_Sub084] (Eterna round: R97, puzzle: Sensor, turn-off variant 1)
- apparent KD of MS2 coat protein (input ligand: FMN 200 uM): 1260 nM
- apparent KD of MS2 coat protein (input ligand: none): 1600 nM

Sequence: AAUCCACAUGAGGAUCACCCAUGUGAGGAUAUGUCCAUAUUCGGCAAAUCGGAUAUGGACAGAAGGCACAUAAA [JR_Exclusion1_Sub013] (puzzle: Exclusion 1)
- apparent KD of MS2 coat protein [3]: 28.3 nM

Sequence: AACAGCACAGGAUAUACAUGAGGAUCACCCAUGUGAGAAUUAAGUAGAUUGCCACAGAGUAGAAGGGUGCUGGA [Ruby 99] (Eterna round: R96, puzzle: Exclusion 3)
- apparent KD of MS2 coat protein (input ligand: FMN 200 uM): 88.9 nM
- apparent KD of MS2 coat protein [1]: 36.4 nM
- apparent KD of MS2 coat protein (input ligand: none): 38.9 nM

Sequence: GCAGCUAAUCGAGGAUAUCAGCACGUUUAGUGCUGAGAAGGCGACAUGAGGAUCACCCAUGUGAUCAAUUAAUAUUAAUGCUGC [ENG1/11-A2] (Eterna round: R96, puzzle: Exclusion NG 1)
- apparent KD of MS2 coat protein (input ligand: FMN 200 uM): 1270 nM
- apparent KD of MS2 coat protein [1]: 344 nM
- apparent KD of MS2 coat protein (input ligand: none): 659 nM

Sequence: UUAAUACAUGUAGGAUAUGCGUGGCGAAGCUAUGCAGAAGGACAUGAGGAUCACCCAUGUUCAUGCGUCCGCGUACGGAUGCAA [JL Eng1 1.21 mod 7] (Eterna round: R96, puzzle: Exclusion NG 1)
- apparent KD of MS2 coat protein (input ligand: FMN 200 uM): 19.9 nM
- apparent KD of MS2 coat protein [1]: 12.6 nM
- apparent KD of MS2 coat protein (input ligand: none): 14.9 nM
